B1: GST-Miro1 WT [not stated] / KIF5C [modified: 35S-methionine label; 35S-methionine label] [not stated] (parent)
chain 1: MKKDVRILLVGEPRVGKTSLIMSLVSEEFPEEVPPRAEEITIPADVTPERVPTHIVDYSEAEQSDEQLHQEISQANVICIVYAVNNKHSIDKVTSRWIPLINERTDKDSRLPLILVGNKSDLVEYSSMETILPIMNQYTEIETCVECSAKNLKNISELFYYAQKAVLHPTGPLYCPEEKEMKPACIKALTRIFKISDQDNDGTLNDAELNFFQRICFNTPLAPQALEDVKNVVRKHISDGVADSGLTLKGFLFLHTLFIQRGRHETTWTVLRRFGYDDDLDLTPEYLFPLLKIPPDCTTELNHHAYLFLQSTFDKHDLDRDCALSPDELKDLFKVFPYIPWGPDVNNTVCTNERGWITYQGFLSQWTLTTYLDVQRCLEYLGYLGYSILTEQESQASAVTVTRDKKIDLQKKQTQRNVFRCNVIGVKNCGKSGVLQALLGRNLMRQKKIREDHKSYYAINTVYVYGQEKYLLLHDISESEFLTEAEIICDVVCLVYDVSNPKSFEYCARIFKQHFMDSRIPCLIVAAKSDLHEVKQEYSISPTDFCRKHKMPPPQAFTCNTADAPSKDIFVKLTTMAMYPHVTQADLKSSTFWLRASFGATVFAVLGFAMYKALLKQR
chain 2: MADPAECSIKVMCRFRPLNEAEILRGDKFIPKFKGDETVVIGQGKPYVFDRVLPPNTTQEQVYNACAKQIVKDVLEGYNGTIFAYGQTSSGKTHTMEGKLHDPQLMGIIPRIAHDIFDHIYSMDENLEFHIKVSYFEIYLDKIRDLLDVSKTNLAVHEDKNRVPYVKGCTERFVSSPEEVMDVIDEGKANRHVAVTNMNEHSSRSHSIFLINIKQENVETEKKLSGKLYLVDLAGSEKVSKTGAEGAVLDEAKNINKSLSALGNVISALAEGTKTHVPYRDSKMTRILQDSLGGNCRTTIVICCSPSVFNEAETKSTLMFGQRAKTIKNTVSVNLELTAEEWKKKYEKEKEKNKTLKNVIQHLEMELNRWRNGEAVPEDEQISAKDQKNLEPCDNTPIIDNIAPVVAGISTEEKEKYDEEISSLYRQLDDKDDEINQQSQLAEKLKQQMLDQDELLASTRRDYEKIQEELTRLQIENEAAKDEVKEVLQALEELAVNYDQKSQEVEDKTRANEQLTDELAQKTTTLTTTQRELSQLQELSNHQKKRATEILNLLLKDLGEIGGIIGTNDVKTLADVNGVIEEEFTMARLYISKMKSEVKSLVNRSKQLESAQMDSNRKMNASERELAACQLLISQHEAKIKSLTDYMQNMEQKRRQLEESQDSLSEELAKLRAQEKMHEVSFQDKEKEHLTRLQDAEEMKKALEQQMESHREAHQKQLSRLRDEIEEKQKIIDEIRDLNQKLQLEQEKLSSDYNKLKIEDQEREMKLEKLLLLNDKREQAREDLKGLEETVSRELQTLHNLRKLFVQDLTTRVKKSVELDNDDGGGSAAQKQKISFLENNLEQLTKVHKQLVRDNADLRCELPKLEKRLRATAERVKALESALKEAKENAMRDRKRYQQEVDRIKEAVRAKNMARRAHSAQIAKPIRPGHYPASSPTAVHAIRGGGGSSSNSTHYQK

Screen value data for one variant are collected here from paper PMC2670979.

Variants of B1 are the subject of the experiment. As to the kind of experiment: GST pull-down of in vitro translated 35S-labeled protein. The note with it: with KIF5C [modified: 35S-methionine label, 2 mM Ca2+, normalized to 100 at 0 mM Ca2+, parent: 70, read off a plot.
As for chain 1 E208K E328K, the screen value was determined as 98.
